Measured values reported in publication PMC9040794, “The Plant Defense Signal Salicylic Acid Activates the RpfB-Dependent Quorum Sensing Signal Turnover via Altering the Culture and Cytoplasmic pH in the Phytopathogen Xanthomonas campestris” (mBio, 2022).

System: CC(C)CCCCCCC/C=C\C(=O)O
Test: purified protein
Conditions: pH 7.0 phosphate (standard of pH 6, 7, 8 tested); co-substrates 5 mM ATP, 0.5 mM CoA; 10 mM MgCl2, 2 mM EDTA, 0.1% Triton X-100; 37°C in b48 (28°C elsewhere in the source)

RpfB (Xanthomonas campestris pv. campestris str. ATCC 33913)
Km: 6.5 µM
